{"source": "patent US20120178693A1", "target": "CMK-inhibited FVII (human Factor VII treated with a 'Phe-Pro-Arg' peptide based chloromethylketone inhibitor) (UniProt P08709)", "sequence (P08709 61-466)": "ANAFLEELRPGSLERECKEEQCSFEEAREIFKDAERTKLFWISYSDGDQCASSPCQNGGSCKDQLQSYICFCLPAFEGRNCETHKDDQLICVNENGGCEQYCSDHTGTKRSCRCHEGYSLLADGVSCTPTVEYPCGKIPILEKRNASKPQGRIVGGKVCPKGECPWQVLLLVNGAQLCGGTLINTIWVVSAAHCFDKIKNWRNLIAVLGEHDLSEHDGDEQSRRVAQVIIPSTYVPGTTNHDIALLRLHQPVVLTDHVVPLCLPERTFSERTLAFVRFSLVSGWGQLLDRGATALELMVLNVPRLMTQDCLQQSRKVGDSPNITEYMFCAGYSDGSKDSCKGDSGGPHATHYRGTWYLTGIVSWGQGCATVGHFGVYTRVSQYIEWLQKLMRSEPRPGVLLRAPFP"}
{"substance": "thrombin", "values": [{"measurement": "activation of FVII by thrombin (rate of hydrolysis of the chromogenic substrate Chromozym-tPA)", "result": "a low activation of FVII by thrombin was measured"}]}
